Measurements as given in patent US20110293610A1 (published 2011).

Biological target: T1, biotinylated B Lymphocyte Stimulator, soluble form (human, UniProt Q9Y275 134-285, biotinylated with NHS-biotin, molar ratio 20:1 biotin:protein)
T1 construct: also called bio-B Lymphocyte Stimulator; free B Lymphocyte Stimulator
Experiment: phage scFv, receptor binding inhibition on IM9 cells
Method: All of the unique phage scFvs from panel 2 were assessed for their ability to inhibit B Lymphocyte Stimulator binding to its cognate receptor on IM9 cells. The biotinylation of B Lymphocyte Stimulator, maintenance of IM9 cells and receptor binding inhibition assay were performed as described in Example 3.

Binder	binding result
I078D02 (scFv) scFv: QVQLQQSGAEVKKPGASVKVSCKASGYTFTSYGISWVRQAPGQGLEWMGWISAYNGNTNYAQKLQGRVTMTTDTSTSTAYMELRSLRSDDTAVYYCARVYYDILTGYNLFFDYWGKGTMVTVSSGGGGSGGGGSGGGGSQSVLTQPASVSGSPGQSITISCTGTSSDVGGYNYVSWYQQHPGKAPKLMIYEGSKRPSGVSNRFSGSKSGNTASLTISGLQAEDEADYYCSSYTTRSTRVFGGGTKLTVLG	binds
I078H08 (scFv) scFv: QVQLVQSAAEVKKPGASVKVSCKASGYTFTSYGISWVRQAPGQGLEWMGWISAYNGNTNYAQKLQGRVTMTTDTSTSTAYMELRSLRSDDTAVYYCARVYYDILTGYNLFFDYWGRGTTVTVSSGGGGSGGGGSGGGGSQSVLTQPASVSGSPGQSITISCTGTSSDVGGYNYVSWYQQHPGKAPKLMIYEGSKRPSGVSNRFSGSKSGNTASLTISGLQAEDEADYYCSSYTTRSTRVFGGGTKLTVLG	binds
I025B06 (scFv) scFv: QVQLVQSGAEVKKPGSSVKVSCRASGGSFNHAISWVRQAPGRGLEWMGGILPMYGTANYAQKFQGRVTITADKLTNTVYMDLSRLRYEDTAVYYCARELGLSIVGATTGALDMWGKGTLVTVSSGGGGSGGGGSGGGGSAQSVLTQPPSVSAAPGQKVTISCSGSSSNIGNNYVSWYQQIPGTAPKLLIYENNKRPSGIPDRFSGSKSGASAALDITGLQTGDEADYYCGTWHSSQVVFGGGTKLTVLG	binds
I025B09 (scFv) scFv: QVHLVQSGAEVKKPGSSVKVSCRASGGSFNHAISWVRQAPGRGLEWMGGILPMYGTANYAQKFQGRVTITADKLTNTVYMDLSRLRYEDTAVYYCARELGLSIVGATTGALDMWGKGTLVTVSSGGGGSGGGGSGGGGSAQSVLTQPPSVSAAPGQKVTISCSGSSSNIGNNYVSWYQQIPGTAPKLLIYENNKRPSGIPDRFSGSKSGASATLDITGLQTGDEADYYCGTWHSSQVVFGGGTKLTVLG	binds
I068C08 (scFv) scFv: QVQLQQSGAEVKKPGSSVKVSCQASGGSFSREGISWVRQAPGHGLEWMGRIIPVLGVADYAQKFQGRVKISVDRLTSVAYMELTSLRFEDTAVYYCAREGMNDFINSHHYYTMDAWGQGTLVTVSSGGGGSGGGGSGGGGSAQAVLTQPSSVSGAPGQRVTISCTGSSSNIGAGYDVHWYQQLPGTAPKLLIYGNSNRPSGVPDRFSGSKSGTSASLAITGLQAEDEADYYCQSYDSSLSGSVFGGGTKLTVLG	binds
I078D08 (scFv) scFv: QVNLRESGGGLVQPGGSLRLSCAASGFTFSSYWMSWVRQAPGKGLEWVANIKQDGSEKYYVDSVKGRFTISRDNSKNTLYLQMNSLRAEDTAVYYCARDAQSYYDILTGYQSYAFDIWGQGTTVTVSSGGGGSGGGGSGGGGSSELTQDPAVSVALGQTVRITCQGDSLRSYYTNWFQQKPGQAPLLVVYAKNKRPSGIPDRFSGSSSGNTASLTITGAQAEDEADYYCHSRDSSGNHVLFGGGTKLTVLG	binds
I003C06 (scFv) scFv: QVQLVQSGAEVKKPGSSVKVSCRASGGSFNHAISWVRQAPGRGLEWMGGILPMYGTANYAQKFQGRVTITADKLTNTVYMDLSRLRYEDTAVYYCARELGLSIVGATTGALDMWGKGTLVTVSSGGGGSGGGGSGGGGSALPVLTQPPSVSVAPGQTATLTCGGTNFGRQSVHWYQQKPGQAPVLAIYHDDVRPSGIPERLSGSKSGNTATLTISRVEAGDEAAYYCQVWDSGSDVVVFGGGTKLTVLG	binds
I072B09 (scFv) scFv: QVQLQQSGAEVKKPGASVKVSCRASGYTFTKYTMHWVRQAPGQGPEWMGWINGGSGDTKYSRKFQGRVTITKDTSASAAYMELSSLGSEDTALYYCARATYDPLTGYSFDGFDIWGQGTLVTVSSGGGGSGGGGSGGGGSSELTQDPAVSVALGQTVRITCQGDSLRSYYTNWFQQKPGQAPLLVVYAKNKRPSGIPDRFSGSSSGNTASLTITGAQAEDEADYYCNSRDSSGNHVVFGGGTKLTVLD	binds
I002A01-R (scFv) scFv: QVQLVQSGAEVKKPGSSVKVSCRASGGSFNRHAISWVRQAPGRGLEWMGGILPMYGTANYAQKFQGRVTITADKLTNTVYMDLSRLRYEDTAVYYCARELGLSIVGATTGALDMWGKGTLVTVSSGGGGSGGGGSGGGGSALPVLTQPPSVSVAPGQTATLTCGGTNFGRQSVHWYQQKPGQAPVLAIYHDDVRPSGIPERLSGSKSGNTATLTISRVEAGDEAAYYCQVWDSGSDVVVFGGGTKLTVLG	binds
I002A01-K (scFv) scFv: QVQLVQSGAEVKKPGSSVKVSCRASGGSFNKHAISWVRQAPGRGLEWMGGILPMYGTANYAQKFQGRVTITADKLTNTVYMDLSRLRYEDTAVYYCARELGLSIVGATTGALDMWGKGTLVTVSSGGGGSGGGGSGGGGSALPVLTQPPSVSVAPGQTATLTCGGTNFGRQSVHWYQQKPGQAPVLAIYHDDVRPSGIPERLSGSKSGNTATLTISRVEAGDEAAYYCQVWDSGSDVVVFGGGTKLTVLG	binds
I068B04 (scFv) scFv: QVQLVQSGAEVKKPGSSVKVSCKASGGTVSSRTISWVRQAPGQGLEWMGGSLPPSGAPIYAQKFQGRVAITADALTNTAFMELRSLKSDDTAVYYCARDQGRYLDLWGRGTLVTVSSGGGGSGGGGSGGGGSALPVLTQPPSASATPGQRVTISCSGSSSNIGSNYVYWYQQLPGTAPKVLIYRNNQRPSGVPDRFSGSRSGTSASLAISGLRSEDEADYYCATWDDSLSGPVFGGGTKVTVLG	binds

Further lines, results first:

binding result	Binder
binds	I075G01 (scFv) scFv: QVQLVQSGAEVKKPGASVKVSCKTSGYTFTGYNINWVRQAPGQGLEWMGWVSPSNGDTSYAQTFQGRVTMTRDTSISTAYMELSSLKSDDTAVYYCARDHFDTLTGYFRRLDSWGQGTLVTVSSGGGGSGGGGSGGGGSALSSELTQDPEVSVALGQTVTITCQGDSLITHYASWFQQKPGQAPLLVFYSKDKRPSGIPDRFSGSYSGNTASLTITGAQAEDEADYYCNSRDSRGKNHVAFGGGTKLTVLG
binds	I030A10 (scFv) scFv: QVQLVQSGAEVKKPGSSVKVSCRASGGSFNHAISWVRQAPGRGLEWMGGILPMYGTANYAQKFQGRVTITADKLTNTVYMDLSRLRYEDTAVYYCARELGLSIVGATTGALDMWGRGTLVTVSSGGGGSGGGGSGGGGSAQAVLTQPSSVSGAPGQRVIISCTGSSSNIGPDYDVHWYQQLPGTAPKLLIYGNNNRPSGVPDRFSGSKSGTSASLAITGLQAEDEAHYYCQSYGSSLSGVVFGGGTKVTVLG
binds	I068F03 (scFv) scFv: EVQLVQSGADVKKPGASVKVSCKASHYPFTTYGVSWVRQAPGQGLEWMGWISNYNGHTRYAPKFQGRVTLTTDTLTNTAFMELKSLTSDDTAIYYCARAGNEYGHTERPADYWGKGTMVTVSSGGGGSGGGGSGGGGSAQAVLTQPSSVSGAPGQRVTISCTGSSSNIGAGYDVHWYQQLPGTTPKLLISRNNNRPPGVPDRFSGSKSGTSASLAITGLQAEDEADYYCQSYDTTLRGWVFGGGTKVTVLG
binds	I065D04 (scFv) scFv: QVQLQESGPGLVKPSETLSLTCTVSGGSISSGYYWGWVRQPPGQGLEWIGSIYHSGSTYHNPSLKSRVTISMDTSKNQFSLNLNSVTAADTAVYYCARGKGYYDILTGYYRDNWFDPWGRGTLVTVSSGGGGSGGGGSGGGGSQSVLTQPASVSGSPGQSITISCTGTSSDVGGYNYVSWYQQHPGKAPKLMIYEGSKRPSGVSNRFSGSKSGNTASLTISGLQAEDEADYYCSSYTTRSTRVFGGGTKLTVLG
binds	I075A02 (scFv) scFv: QVQLVQSGAEVKKPGSSVKVSCRASGGSFNHAISWVRQAPGRGLEWMGGILPMYGTANYAQKFQGRVTITADKLTNTVYMDLSRLRYEDTAVYYCARELGLSIVGATTGALDMWGRGTLVTVSSGGGGSGGGGSGGGGSAQSVVTQPPSASGTPGQRVTVSCSGGRSNIGSNTVSWYQQLPGTAPKLLIYSNDERPSGVPDRFSGSNSGTSASLAISGLQSEDEADYYCAAWDDSLNGVAFGGGTKLTVLG
binds	I065D08 (scFv) scFv: GVQLVQSGAEVKKPGASVKVSCKASGYTFTSYGISWVRQAPGQGLEWMGWISAYNGNTNYAQKLQGRVTMTTDTSTSTAYMELRSLRSDDTAVYYCARTPSSVYDLLTGYYHYFYSYMDVWGRGTMVTVSSGGGGSGGGGSGGGGSQSVLTQPASVSGSPGQSITISCTGTSSDVGGYNYVSWYQQHPGEAPKLMIYEGSKRPSGVSNRFSGSKSGNTASLTISGLQAEDEADYYCSSYTTRSTRVFGGGTKLTVLG
binds	I069B07 (scFv) scFv: QVQLVQSGAEVKKPGASVKVSCKASGYTFTSYGISWVRQAPGQGLEWMGWISAYNGNTNYAQKLQGRVTMTTDTSTSTAYMELRSLRSEDTAVYYCARMEYDILTGYYGGYFDYWGQGTMVTVSSGGGGSGGGGSGGGGSQSVLTQPASVSGSPGQSITISCTGTSSDVGGYNYVSWYQQHPGKAPKLMIYEGSKRPSGVSNRFSGSKSGNTASLTISGLQAEDEADYYCSSYTTRSTRVFGGGTKLTVLG
binds	I073F04 (scFv) scFv: QVQLQQSGAEVKKPGSSVKVSCKASGGTFRSYAFSWVRQAPGQGLEWMGYIVPVFGTATYAQNFQGRVTITADELTTTAFMELSSLTSEDTAVYYCARSLATRPLGMDVWGRGTTVTVSSGGGGSGGGGSGGGGSQSVLTQPASVSGSPGQSITISCTGTSSDVGGYNYVSWYQQHPGKAPKLMIYEGSKRPSGVSNRFSGSKSGNTASLTISGLQAEDEADYYCSSYTTRSTRVFGGGTKLTVLG
binds	I075F12 (scFv) scFv: QVQLVQSGAEVKKPGSSVKVSCKASGGTVSSRTISWVRQAPGQGLEWMGGSLPPSGAPIYAQKFQGRVAITADALTNTAFMELRSLKSDDTAVYYCARDQGRYLDLWGQGTMVTVSSGGGGSGGGGSGGGGSAQAVLTQPSSASGTPGQRATISCSGSSSDIGINAVNWYKQLPRTAPKLLIYRNNQRPSGVPDRFSGSKSGTSASLAIIGLQSEDEADYYCATWDDSLTAYVFGTGTKVTVLG
